B1: I-mfc (protein)
chain: MSQVSGQCPSRCDAPHGVPSAALDPAQTMSLLPGLEVARSTHPVEASSEEGFPEEAAPSMPHDSGLRAQQALNSIDLDVPTEAVTCQPQGNPQGCTPLLPNGSSHDHLSEPGSAGHAGNGALGGSKAHRKLQTHPPQPPNRSAFRRVAWSPPRVTRNTASRAW
B2: I-mfa (protein)
chain: MSQVSGQCPSRCDAPHGVPSAALDPAQTMSLLPGLEVARSTHPVEASSEEGFPEEAAPSMPHDSGLRAQQALNSIDLDVPTEAVTCQPQGNPQGCTPLLPNGSSHDHLSEPGSAGHAGNGALGGSKAHRKLQTHPSLGSQAGRKSRGSARSASQVPLQAQEDCCVHCILSCLFCEFLTLCNILLDCATCGSCSSEDSCLCCCCCGSGECADCDLPCDLDCGIVDACCESADCLEICMECCGLCFSS
B3: I-mfb (protein)
chain: MSQVSGQCPSRCDAPHGVPSAALDPAQTMSLLPGLEVARSTHPVEASSEEGFPEEAAPSMPHDSGLRAQQALNSIDLDVPTEAVTCQPQGNPQGCTPLLPNGSSHDHLSEPGSAGHAGNGALGGSKAHRKLQTHPSLGSQAGRKSRGSARSASQVPLQAQEGKAPAVRIHRQTASPTCCLRNAQLSGTALRSLRLESQGHRELNNKTLSQSNNKKPGVAAHAAIIPALTRPKQNCHDPSLLPGTHGVGKEF

target: E12

Relative CAT Activity (%), p4R-TK-CAT, NIH3T3 | Binder
93.8% | B1
76.3% | B2
98.7% | B3

Source: patent US5885797
